From patent US20220098591, “STEM-LOOP COMPOSITIONS AND METHODS FOR INHIBITING VASCULAR ENDOTHELIAL GROWTN FACTOR” (DRIVE THERAPEUTICS LLC, published 2022)

Key:
VEGF-A121 [1] = target: T1, VEGF-A121 (Homo sapiens, UniProt P15692 SEQ:1-121); assay: competition; AlphaLISA, blocks KDR binding; conditions: tags: glycan-biotinylated for SPR/FRET/AlphaLISA; Acro BioSystems, Biolegend; chain copies: 2 (stated); stem-loop
Target sequence in this assay (P15692 other isoform, or with tags, fused parts or gaps): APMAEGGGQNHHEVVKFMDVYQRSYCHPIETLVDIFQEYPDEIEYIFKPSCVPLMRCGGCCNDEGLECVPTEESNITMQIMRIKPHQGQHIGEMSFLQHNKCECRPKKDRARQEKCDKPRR

VEGF-A165 [2] = target: T2, VEGF-A165 (Homo sapiens); assay: SPR; HEPES pH 7.4, 137.5 mM NaCl, 1 mM MgCl2, 1 mM CaCl2; conditions: tags: glycan-biotinylated for SPR/FRET/AlphaLISA; Acro BioSystems, R&D Systems; chain copies: 2 (inferred); stem-loop
T2 chain: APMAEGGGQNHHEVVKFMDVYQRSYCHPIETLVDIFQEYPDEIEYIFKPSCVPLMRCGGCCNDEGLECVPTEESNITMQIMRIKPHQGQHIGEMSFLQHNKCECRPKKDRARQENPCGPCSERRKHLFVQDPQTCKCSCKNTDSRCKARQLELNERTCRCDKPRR
Method: (§1) Aptamer 26 was identical in sequence to Aptamer 4.2 but contained a hexylamine linker in place of the C6 disulfide linker at the 5′ terminus. […] Briefly, in the SPR studies, 1.0-2.5 μg/mL of glycan biotinylated VEGF-A₁₆₅, VEGF-A₁₂₁, and VEGF-A₁₁₀ were diluted in HEPES running buffer (10 mM HEPES, 137.5 mM NaCl, 5.7 mM KCl, 1 mM MgCl₂, 1 mM CaCl₂, and 0.05% Tween20; pH 7.4) and immobilized to a streptavidin dextran chip (GE Healthcare Life Sciences) for 1-2 minutes. The chip was then blocked with 0.2 mg/mL biotin in running buffer, followed by 3 cycles of buffer blanks and regenerated with 50 mM NaOH to equilibrate the chip. […] After coating and blocking, samples were screened at 100 nM in duplicate injections at a flow rate of 25 μL/min, with an association time of 3 minutes 20 seconds and a dissociation time of 10 minutes. Regeneration conditions of chips were optimized based on the protein immobilized and effected with either 50 mM NaOH for 30 seconds or 2M guanidine HCl for 2×40 seconds.
(§2) Data was fit to a 1:1 kinetic binding model.

VEGF-A110 [3] = target: T3, VEGF-A110 (Homo sapiens, UniProt P15692 SEQ:1-110); assay: SPR; HEPES pH 7.4, 1 mM MgCl2, 1 mM CaCl2; conditions: tags: glycan-biotinylated; chain copies: 2 (stated); stem-loop
Method: as §1, §2

VEGF-A121 [4] = target: T1, VEGF-A121; assay: SPR; HEPES pH 7.4, 1 mM MgCl2, 1 mM CaCl2; conditions: tags: glycan-biotinylated for SPR/FRET/AlphaLISA; Acro BioSystems, Biolegend; chain copies: 2 (stated); stem-loop
Method: as §1, §2

VEGF-A165 [5] = target: T2, VEGF-A165; assay: direct TR-FRET, MOPS pH 7.4, 1 mM CaCl2, 1 mM MgCl2, RT; conditions: tags: glycan-biotinylated for SPR/FRET/AlphaLISA; Acro BioSystems, R&D Systems; chain copies: 2 (inferred); stem-loop
VEGF-A165 [6] = target: T2, VEGF-A165; assay: competition; AlphaLISA, blocks KDR binding; conditions: tags: glycan-biotinylated for SPR/FRET/AlphaLISA; Acro BioSystems, R&D Systems; chain copies: 2 (inferred); stem-loop
Method: Briefly, the aptamers were heated at 90° C. for 3 minutes and allowed to cool to room temperature for a minimum of 10 minutes. Aptamers and anti-VEGF-A antibody were serial diluted in a polypropylene plate and 5 μL was transferred to a white low volume 384 well Optiplate (Perkin Elmer). A solution of VEGF-A₁₆₅ (Acro BioSystems) or VEGF-A₁₂₁ (Acro BioSystems) that was glycan biotinylated was prepared and added to the assay plate containing aptamers or anti-VEGF-A antibody to yield a final assay concentration of 2 nM. A mixture of human recombinant his-tagged KDR, (Sino Biological), AlphaLISA® nickel chelate acceptor beads (Perkin Elmer), and AlphaScreen® streptavidin donor beads (Perkin Elmer) was then prepared and 10 μL was added to the assay plate. The final concentrations of KDR and beads were 5 nM and 5 ug/mL, respectively. The assay plate was sealed and incubated in the dark for approximately 2 hours, after which it was read on a Biotek CYTATION™ 5 plate reader using the Alpha 384 well optical cube. The low signal control was determined using excess anti-VEGF-A inhibitor and the high signal control was determined by buffer only.
The mechanism of action of lead aptamers was characterized by interrogating their ability to inhibit the VEGF-A:KDR interaction with both VEGF-A₁₆₅ and VEGF-A₁₂₁.

VEGF-A121 [7] = target: T1, VEGF-A121; assay: direct TR-FRET, RT; error not given; conditions: tags: glycan-biotinylated for SPR/FRET/AlphaLISA; Acro BioSystems, Biolegend; chain copies: 2 (stated); stem-loop
Method: (§3) Briefly, ALEXA FLUOR® 647-labeled aptamers were heated to 90° C. for 3 minutes and cooled to room temperature. Titrations of ALEXA FLUOR® 647-labeled aptamers and ALEXA FLUOR® 647-labeled anti-VEGF-A antibody were made in TR-FRET buffer (50 mM MOPS, pH 7.4, 125 mM NaCl, 5 mM KCl, 50 μM CHAPS, 0.1 mg/mL BSA, 1 mM CaCl₂, and 1 mM MgCl₂) in a polypropylene plate. 5 μL of aptamers or antibody were transferred to the black wall low volume 384 well assay plate (Greiner), followed by 5 μL glycan biotinylated VEGF-A₁₂₁ (2.5 nM final), and 5 μL Streptavidin-Eu (Perkin Elmer; 2.5 nM final). The plate was covered with a plate seal and subsequently incubated in the dark for 2 hours at room temperature. The plate was read on a Biotek CYTATION™ 5 plate reader. Samples were excited at 330 nm and fluorescent values were collected at 665 nm.
(§4) No protein background fluorescent values were averaged and subtracted from test compounds, with data normalized as a fold change to highest concentrations of aptamers and antibody. These values were fit using a four-parameter non-linear fit in GraphPad Prism Version 7.0.

VEGF-A121 [8] = target: T1, VEGF-A121; assay: competition; TR-FRET; conditions: tags: glycan-biotinylated for SPR/FRET/AlphaLISA; Acro BioSystems, Biolegend; chain copies: 2 (stated)
Method: (§5) Briefly, for competition TR-FRET, 2-fold dilutions of thermally equilibrated aptamers were made in TR-FRET Buffer (50 mM MOPS, pH 7.4, 125 mM NaCl, 5 mM KCl, 50 μM CHAPS, 0.1 mg/mL BSA, 1 mM CaCl₂, and 1 mM MgCl₂). 5 μL of aptamer or control solution was added to a 15 μL mix of glycan biotinylated […] (5 nM final), ALEXA FLUOR® 647-labeled Aptamer (30 nM final), and Streptavidin-Eu (Perkin Elmer; 2.5 nM final) in a black wall low volume 384 well plate (Greiner). For control, 5 μl of 1000-fold excess of unlabeled parent aptamer or 5 μl TR-FRET buffer alone was added to the mix of ALEXA FLUOR® 647-labeled aptamer, biotin-VEGF-A, and Streptavidin-Eu. The plate was covered with a plate seal and subsequently incubated in the dark for 1 hour at room temperature. The plate was read on a Biotek CYTATION™ 5 plate reader. Samples were excited at 330 nm and fluorescent values were collected at 665 nm. Data analysis was performed by subtracting the background value and plotting as percent inhibition, normalized to baseline in the absence of competitor. The values were fit by [Inhibitor] vs. response-Variable slope (four parameters) using GraphPad Prism Version 7.0 and then normalized to aptamer control to obtain an IC₅₀ relative to parent aptamer. Data is presented as log values of relative IC₅₀.
Starting at position 6, 2′F-G residues were systematically replaced, one at a time, and the activity of the resultant molecule was assessed by competition TR-FRET, as described in Example 7, against the parent molecule, Aptamer 141.

VEGF-A121 [9] = target: T1, VEGF-A121; assay: direct TR-FRET, RT; conditions: tags: glycan-biotinylated for SPR/FRET/AlphaLISA; Acro BioSystems, Biolegend; chain copies: 2 (stated); stem-loop
Method: as §3, §4

VEGF-A165 [10] = target: T2, VEGF-A165; assay: direct TR-FRET, RT; limited by VEGF-A concentration; conditions: tags: glycan-biotinylated for SPR/FRET/AlphaLISA; Acro BioSystems, R&D Systems; chain copies: 2 (inferred); stem-loop
VEGF-A165 [11] = target: T2, VEGF-A165; assay: competition; AlphaLISA, blocks KDR binding; limited by VEGF-A concentration; conditions: tags: glycan-biotinylated for SPR/FRET/AlphaLISA; Acro BioSystems, R&D Systems; chain copies: 2 (inferred); stem-loop
VEGF-A165 [12] = target: T2, VEGF-A165; assay: SPR; HBD-binding aptamer; conditions: tags: glycan-biotinylated for SPR/FRET/AlphaLISA; Acro BioSystems, R&D Systems; chain copies: 2 (inferred)
Method: as §1, §2

VEGF-A165 [13] = target: T2, VEGF-A165; assay: cell_activity; partial (~80%) inhibition of KDR phosphorylation; no inhibition of KDR binding in AlphaLISA; conditions: tags: glycan-biotinylated for SPR/FRET/AlphaLISA; Acro BioSystems, R&D Systems; chain copies: 2 (inferred)
Method: Briefly, HEK293 cells engineered to stably overexpress KDR were plated overnight in collagen coated 96 well plates at 50 k cells/well. Aptamers in SB1+ (40 mM HEPES, pH 7.5, 125 mM NaCl, 5 mM KCl, 1 mM MgCl₂) were heated to 90° C. for 3 minutes and allowed to cool to room temperature for a minimum of 10 minutes. […] 15 μL of VEGF-A was added to 15 μL titrated aptamer in a polypropylene plate and diluted to 300 μL with TS buffer (10 mM Tris pH 7.5; 100 mM NaCl; 5.7 mM KCl; 1 mM MgCl₂; 1 mM CaCl₂). The aptamer/VEGF-A mixture was incubated at 37° C. for 30 minutes, after which 100 μL was added to the cells for 5 minutes at 37° C. in 5% CO₂. Treatments were aspirated from cells, and cells were lysed with 100 μL cold lysis buffer [20 mM Tris-HCl, pH 7.5, 150 mM NaCl, 1 mM EDTA, 1% Triton X-100, 0.5 mM sodium orthovanadate (freshly prepared), 1 mM PMSF (freshly prepared), lx protease inhibitor cocktail (freshly prepared)] on ice for 10 minutes. […]
To perform the AlphaLISA® assay, 10 μL of cell lysis was transferred to a white low volume 384 well Optiplate (Perkin Elmer). […] The assay plate was sealed and incubated in the dark for approximately 2 hours, then was read on a Biotek CYTATION™ 5 plate reader using the Alpha 384 well optical cube. Percent inhibition was calculated by subtracting TS buffer background from each value and normalizing to VEGF-A only controls. […]

VEGF-A110 [14] = target: T3, VEGF-A110; assay: SPR; no binding at highest concentration (500 nM); conditions: tags: glycan-biotinylated; chain copies: 2 (stated)
Method: as §1, §2

VEGF-A121 [15] = target: T1, VEGF-A121; assay: SPR; no binding at highest concentration (500 nM); conditions: tags: glycan-biotinylated for SPR/FRET/AlphaLISA; Acro BioSystems, Biolegend; chain copies: 2 (stated)
Method: as §1, §2

VEGF-A121 [16] = target: T1, VEGF-A121; assay: competition; TR-FRET; stem S1 mispaired; conditions: tags: glycan-biotinylated for SPR/FRET/AlphaLISA; Acro BioSystems, Biolegend; chain copies: 2 (stated)
Method: as §5, with “IC₅₀. […]” for “IC₅₀.”

VEGF-A121 [17] = target: T1, VEGF-A121; assay: competition; TR-FRET; stem S2 mispaired; conditions: tags: glycan-biotinylated for SPR/FRET/AlphaLISA; Acro BioSystems, Biolegend; chain copies: 2 (stated)
Method: as §5, with “IC₅₀. […]” for “IC₅₀.”

VEGF-A121 [18] = target: T1, VEGF-A121; assay: competition; TR-FRET; stem S3 mispaired; conditions: tags: glycan-biotinylated for SPR/FRET/AlphaLISA; Acro BioSystems, Biolegend; chain copies: 2 (stated)
Method: as §5, with “IC₅₀. […]” for “IC₅₀.”

VEGF-A121 [19] = target: T1, VEGF-A121; assay: competition; TR-FRET; also no pKDR inhibition at 100 nM; conditions: tags: glycan-biotinylated for SPR/FRET/AlphaLISA; Acro BioSystems, Biolegend; chain copies: 2 (stated)
Method: as §5, with “IC₅₀. […]” for “IC₅₀.”

B1: Aptamer 26 (ssRNA)
RNA: UAGGCCGCCUCCGCGCGGAGGGGUUUCAUUAUCCCGUUUGGCGGCUUU
modifications: all G 2'-F; all A,C,U 2'-OMe; 5' C6NH2; 3' idT (Tables 14-16 print it without the terminal U residues)
IC50 (VEGF-A121 [1]): 19 nM
Kd (VEGF-A165 [2]): 0.5 nM
Kd (VEGF-A110 [3]): 9.9 nM
Kd (VEGF-A121 [4]): 4.6 nM
Kd (VEGF-A165 [5]): 4 nM
IC50 (VEGF-A165 [6]): 3.7 nM
Kd (VEGF-A121 [7]): 46 nM

GCCGACCCGCGCGGAGGGGUUUCAUUACCCCGUUUGUCGGC (ssRNA, all G 2'-F; A,C,U 2'-OMe; Sp3 joins the two parts; 5' C6NH2; 3' idT) [Aptamer 199]
binding signal (VEGF-A121 [8]): ~2 fold better IC50 vs Aptamer 141

B2: Aptamer 141 (ssRNA)
RNA: AGGCCGACCCGCGCGGAGGGGUUUCAUUAUCCCGUUUGUCGGCUU
modifications: all G 2'-F; A,C,U 2'-OMe; Sp3 joins the two parts (position 9); 5' C6NH2; 3' idT
IC50 (VEGF-A121 [1]): 3.2 nM
Kd (VEGF-A121 [9]): 4.3 nM
Kd (VEGF-A165 [10]): 1.2 nM
IC50 (VEGF-A165 [11]): 0.81 nM

CGGAAUCAGUGAAUGCUUAUACAUCCG (ssRNA, 2'-F C and U; 2'-OMe G and A except AA at positions 4-5; 5' C6NH2; 3' idT) [Aptamer 7]
Kd (VEGF-A165 [12]): 0.6 nM
IC50 (VEGF-A165 [13]): 2.2 nM
binding result (VEGF-A110 [14]): no binding
binding result (VEGF-A121 [15]): no binding

AGGCCGCAUCCGCGCGGAGGGGUUUCAUUAUCCCGUUUAACCGCUU (ssRNA, all G 2'-F; A,C,U 2'-OMe; 5' C6NH2; 3' idT) [Aptamer 180]
binding signal (VEGF-A121 [16]): > 100 fold worse IC50 vs Aptamer 26

AGGCCGCAUCCGCGCGGAGGGGUUUCAUUAUCCCGUUUAACCGAUU (ssRNA, all G 2'-F; A,C,U 2'-OMe; 5' C6NH2; 3' idT) [Aptamer 181]
binding signal (VEGF-A121 [16]): > 100 fold worse IC50 vs Aptamer 26

AGGCCGCCUUUGCGCUUAGGGGUUUCAUUAUCCCGUUUGGCGGCUU (ssRNA, all G 2'-F; A,C,U 2'-OMe; 5' C6NH2; 3' idT) [Aptamer 182]
binding signal (VEGF-A121 [17]): > 100 fold worse IC50 vs Aptamer 26

AGGCCGCCUCCGCGCCCAGGGGUUUCAUUAUCCCGUUUGGCGGCUU (ssRNA, all G 2'-F; A,C,U 2'-OMe; 5' C6NH2; 3' idT) [Aptamer 183]
binding signal (VEGF-A121 [17]): > 100 fold worse IC50 vs Aptamer 26

AGGCCGCCUCCGCGCGGAGCCGUUUCAUUAUCCCGUUUGGCGGCUU (ssRNA, all G 2'-F; A,C,U 2'-OMe; 5' C6NH2; 3' idT) [Aptamer 184]
binding signal (VEGF-A121 [18]): > 100 fold worse IC50 vs Aptamer 26

AGGCCGCCUCCGCGCGGAGGGGUUUCAUUAUAACGUUUGGCGGCUU (ssRNA, all G 2'-F; A,C,U 2'-OMe; 5' C6NH2; 3' idT) [Aptamer 185]
binding signal (VEGF-A121 [18]): > 100 fold worse IC50 vs Aptamer 26

UAGGCCGCCUCCGCGCGGGGGGGUUUCAUUAUCCCGUUUGGCGGCUUU (ssRNA, all G 2'-F; A,C,U 2'-OMe; 5' C6NH2; 3' idT) [Aptamer 27]
binding signal (VEGF-A121 [19]): > 100 fold worse IC50 vs Aptamer 26
